The source of these data is patent US20150079111A1, “MECHANISM, DIAGNOSTIC, AND TREATMENTS FOR COMPLICATIONS OF RENAL FAILURE” (priority 2012, published 2015).

The test system of experiment [1] is renin-angiotensin-aldosterone (RAS) proteins AGT, ACE, AT1. In words: RAS protein levels (AGT, ACE, AT1) in PTCs by Western blot. Format: cell-based, human. Conditions: PTCs treated, then exposed to 100 μg/ml of AOPPs (sample set D). As for the experimental part:
(§1) Human Tubular Epithelial Cells (HUTEC) cells were cultured in DMEF/F-12 medium containing 10% fetal calf serum, penicillin (200 U/ml) and streptomycin (200 ug/ml) until confluence, and then left serum-free overnight.
In sample set D, the PTCs were treated with either copper-zinc superoxide dismutase (an […], c-SOD), one of two inhibitors of NADPH oxidase (either diphenyleneiodonium (DPI) or apocynin), a pan-PKC inhibitor (Go6983), or PKCα inhibitor (Go6976). The PTCs were then exposed to 100 μg/ml of AOPPs. The protein levels of downstream renin-angiotensin-aldosterone (RAS) proteins were measured relative to β-actin. The expression of […], ACE, and AT1 was examined by Western blot.
A general note: In western blotting, separated proteins are transferred to a membrane and probed.

Experiment [2] concerns p47phox, a subunit of NADPH oxidase. In words: Phosphorylation of p47phox in AOPP-exposed proximal tubule cells (immunoprecipitation / co-immunoprecipitation). Format: cell-based, human. Conditions: PTCs incubated with inhibitor before AOPP exposure (sample set B). As to the method: as §1
In sample set B, PTCs were incubated with either a pan-PKC inhibitor (Gö6983) or PKCα inhibitor (Gö6976) before AOPP exposure. Phosphorylation of p47phox was assayed by immunoprecipitation.
In sample set F, the level of phosphorylated p47phox in PTC cells was analyzed by co-immunoprecipitation.

The subject of experiment [3] is proximal tubule cells (PTCs). In words: Intracellular ROS production in proximal tubule cells, fluorometric analysis. Format: cell-based, human. The settings on record: PTCs pre-incubated or transfected, then exposed to AOPPs (sample set C). As for the experimental part:
as §1
In sample set C, the PTC cells were pre-incubated with either a pan-PKC inhibitor (Gö6983), PKCα inhibitor (Gö6976), anti-RAGE antibody (a-RAGE), transfected with a CD36 siRNA (si-CD36), or both anti-RAGE antibody and transfected with CD36 siRNA (si-CD36+a-RAGE). The PTC cells were then exposed to AOPPs. Intracellular ROS production was determined by a fluorometric analysis.

The conditions of experiment [4]: patients with type-2 diabetes; cited from earlier work.
The next experiment relates to AGT, ACE and AT1. Nature of the experiment: Expression of AGT, ACE and AT1 in HMVECad cells by Western blotting. Format: cell-based, human. Conditions: HMVECads, 60 minutes, modified RSA versus control. From the text:
(§2) Interfering with human microvascular endothelial cell (HMVECad) SCARB1 expression or blocking the receptor using an antibody ameliorates the effect of MDA-protein or pentosidine-protein on intracellular ROS production. Cryopreserved HMVECads were purchased from Life Technologies and cultured according to the company's instructions in Medium 131 with attachment factor (M-131-500) and addition of Microvascular Growth Supplement until confluence, and then left serum-free overnight.
(§3) Next, the cells were pre-incubated with a polyclonal anti-SCARB1 antibody (a-SRB) or a polyclonal anti-CD36 antibody (a-CD36) or transfected with either SCARB1 siRNA (si-SRB) or CD36 siRNA (siCD36) before exposure to MDA-RSA or Pent-RSA as above. The pre-incubations were performed in various combinations. The labels beneath each set of bars indicate which pre-incubation and which exposure was made to that set. The bars labelled “NC-siRNA” were pre-incubated with scramble siRNA and exposed to untreated RSA. The dark bars are read using the left y-axis, and the white bars are read using the right y-axis.
After incubating for 60 minutes, the intracellular ROS production was again determined for the cells of FIG. 20 by a fluorometric analysis. The expression levels of AGT, ACE and AT1 were examined by Western blotting.

In experiment [5] the test system is human microvascular endothelial cell (HMVECad). In words: Intracellular ROS production in HMVECad cells, fluorometric analysis. Format: cell-based. Conditions: for intracellular ROS: HMVECads exposed to modified RSA versus control unmodified RSA; for intracellular ROS production: HMVECads, 100 μg/ml for 15, 30, 60 or 120 minutes, effect of exposure time.
Text: as §2
First, HMVECads were treated with 100 μg/ml of one of three solutions. The first solution (MDA-protein) was rat serum albumin (RSA) treated with an equimolar 1 mmol/L solution of malondialdehyde (MDA) and acetaldehyde for 3 days at 37° C. The second solution was pentosidine-RSA, prepared by incubating 0.5 mg of normal RSA with 0.1 M D-glucose in 0.5 ml of 0.1 M sodium phosphate at 37° C. for 14 days. The third solution (the control) was untreated RSA from the same batch. The HMVECads were treated for 15, 30, 60, or 120 minutes. Following the indicated time, intracellular ROS production was determined by a fluorometric analysis.
as §3
(§4) The intracellular ROS was a proxy for NADPH oxidase activation and mitochondrial leakage, both of which are linked to cellular stress and induction of apoptosis. The phospho-PKCα measured membrane-associated PKC signalling induced by oxidation and linked to activation of NADPH oxidase and other cellular stressors.

For another experiment, the system named is PKCα. Nature of the experiment: Phospho-PKCα (membrane-associated PKC signalling, cellular stress) in HMVECad cells. Format: cell-based, human. The settings on record: HMVECads exposed to modified RSA versus control unmodified RSA.
Text: as §2
Next, the cells were pre-incubated with a polyclonal anti-SCARB1 antibody (a-SRB) or a polyclonal anti-CD36 antibody (a-CD36) or transfected with either SCARB1 siRNA (si-SRB) or CD36 siRNA (siCD36) before exposure to MDA-RSA or Pent-RSA as above. The pre-incubations were performed in various combinations. The labels beneath each set of bars indicate which pre-incubation and which exposure was made to that set. […] The dark bars are read using the left y-axis, and the white bars are read using the right y-axis.
as §4

As for `c1ccc2c(c1)[I+]c1ccccc1-2` [DPI, diphenyleneiodonium], the “protein levels of RAS proteins (AGT, ACE, AT1) relative to β-actin” value in experiment [1] is given as “lower levels of these proteins”.
Take `Cn1c2ccccc2c2c3c(c4c5ccccc5n(CCC#N)c4c21)CNC3=O` [Gö6976, 12-(2-Cyanoethyl)-6,7,12,13-tetrahydro-13-methyl-5-oxo-5H-indolo(2,3-a)pyrrolo(3,4-c)-carbazole]: the “phosphorylation of p47phox” value in experiment [2] was “p47phox is phosphorylated through pan-PKC or PKCα”. In addition, the “protein levels of RAS proteins (AGT, ACE, AT1) relative to β-actin” value in experiment [1] was “lower levels of these proteins”. The “intracellular ROS production” value in experiment [3] is “Further reduction”.
Turning to `COc1cc(C(C)=O)ccc1O` [apocynin], the “protein levels of RAS proteins (AGT, ACE, AT1) relative to β-actin” value in experiment [1] is given as “lower levels of these proteins”.
As to `CC1(C)CC[C@]2(C(=O)O)CC[C@]3(C)[C@H](C(=O)C=C4[C@@]5(C)C=C(C#N)C(=O)C(C)(C)[C@@H]5CC[C@]43C)[C@@H]2C1` [bardoxolone], the nephroprotective effect entry in experiment [4] is recorded as “nephroprotective”.
For the molecule “copper-zinc superoxide dismutase [c-SOD]”, the “protein levels of RAS proteins (AGT, ACE, AT1) relative to β-actin” value in experiment [1] is reported as “lower levels of these proteins”.

B1: MDA-RSA: rat serum albumin treated with an equimolar 1 mmol/L solution of malondialdehyde and acetaldehyde for 3 days at 37° C. (protein)
chain: EAHKSEIAHRFKDLGEQHFKGLVLIAFSQYLQKCPYEEHIKLVQEVTDFAKTCVADENAENCDKSIHTLFGDKLCAIPKLRDNYGELADCCAKQEPERNECFLQHKDDNPNLPPFQRPEAEAMCTSFQENPTSFLGHYLHEVARRHPYFYAPELLYYAEKYNEVLTQCCTESDKAACLTPKLDAVKEKALVAAVRQRMKCSSMQRFGERAFKAWAVARMSQRFPNAEFAEITKLATDVTKINKECCHGDLLECADDRAELAKYMCENQATISSKLQACCDKPVLQKSQCLAEIEHDNIPADLPSIAADFVEDKEVCKNYAEAKDVFLGTFLYEYSRRHPDYSVSLLLRLAKKYEATLEKCCAEGDPPACYGTVLAEFQPLVEEPKNLVKTNCELYEKLGEYGFQNAVLVRYTQKAPQVSTPTLVEAARNLGRVGTKCCTLPEAQRLPCVEDYLSAILNRLCVLHEKTPVSEKVTKCCSGSLVERRPCFSALTVDETYVPKEFKAETFTFHSDICTLPDKEKQIKKQTALAELVKHKPKATEDQLKTVMGDFAQFVDKCCKAADKDNCFATEGPNLVARSKEALA
Consider B1, for which, in the experiment on AGT, ACE and AT1, the “expression levels of AGT, ACE and AT1” value is “caused an increase in activity compared to the control”. For the same molecule, in experiment [5], the “intracellular ROS” value is reported as “caused an increase in activity compared to the control” and the “intracellular ROS production” value is on record as “greater ROS production”. Also, in the experiment on PKCα, the “phospho-PKCα (cellular stress signalling)” value is “caused an increase in activity compared to the control”.

B2: Pent-RSA: prepared by incubating normal RSA with 0.1 M D-glucose in sodium phosphate at 37° C. for 14 days (protein)
chain: EAHKSEIAHRFKDLGEQHFKGLVLIAFSQYLQKCPYEEHIKLVQEVTDFAKTCVADENAENCDKSIHTLFGDKLCAIPKLRDNYGELADCCAKQEPERNECFLQHKDDNPNLPPFQRPEAEAMCTSFQENPTSFLGHYLHEVARRHPYFYAPELLYYAEKYNEVLTQCCTESDKAACLTPKLDAVKEKALVAAVRQRMKCSSMQRFGERAFKAWAVARMSQRFPNAEFAEITKLATDVTKINKECCHGDLLECADDRAELAKYMCENQATISSKLQACCDKPVLQKSQCLAEIEHDNIPADLPSIAADFVEDKEVCKNYAEAKDVFLGTFLYEYSRRHPDYSVSLLLRLAKKYEATLEKCCAEGDPPACYGTVLAEFQPLVEEPKNLVKTNCELYEKLGEYGFQNAVLVRYTQKAPQVSTPTLVEAARNLGRVGTKCCTLPEAQRLPCVEDYLSAILNRLCVLHEKTPVSEKVTKCCSGSLVERRPCFSALTVDETYVPKEFKAETFTFHSDICTLPDKEKQIKKQTALAELVKHKPKATEDQLKTVMGDFAQFVDKCCKAADKDNCFATEGPNLVARSKEALA
Regarding B2, the “expression levels of AGT, ACE and AT1” value with AGT, ACE and AT1 is recorded as “caused an increase in activity compared to the control”. For the same molecule, in experiment [5], the “intracellular ROS” value was “caused an increase in activity compared to the control” and the “intracellular ROS production” value is recorded as “greater ROS production”. Besides, in the experiment with PKCα, the “phospho-PKCα (cellular stress signalling)” value is on record as “caused an increase in activity compared to the control”.
